The test system of the data set is MS2 coat protein. The data set can be described thus: apparent KD of MS2 coat protein; designed switch direction (-1 OFF switch, 1 ON switch): -1; higher = weaker reporter binding. The method in brief:
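Designed RNA switches were transcribed on Illumina chips by stalled E. coli RNA polymerase and titrated with SNAP-549-labelled MS2 coat protein from 0.7 or 1.5 nM, doubling to 3 µM. Step length ran from 0.8–1.5 h at the lowest concentration to 10–20 min at the highest. The apparent KD is the median over clusters for each design, from curve-fitted normalised cluster fluorescence.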

[1] abbreviates: Eterna round: R95, input ligand: microRNA oligo, concentration not stated.
[2] abbreviates: input ligand: microRNA oligo, concentration not stated.
Where [3] appears, read: Eterna round: R95, input ligand: FMN 200 uM.
The mark [4] stands for this setting: Eterna round: R95, input ligand: none.

As for “CGAUGUGGAGUGAGGAUAUCGUGUUCGAAAGAACGUGAGAAGGCACAUGAGGAUCACCCAUGUGAUUCACGUCG [Omei Ex4B A6] (Eterna round: R97, puzzle: Brourd's mod of Exclusion 4)”, the “apparent KD of MS2 coat protein” value by setting is: (input ligand: FMN 200 uM) 28 nM; (input ligand: none) 15.6 nM.

Take “CGCAAGUUAGGAUAUGACGCGAAUUUCCGGCUUUGGCCGGAUCAGAAGGAACUUGAGGAUCACCCAAGUGGCCG [Adia] (Eterna round: R97, puzzle: Exclusion 4)”: the “apparent KD of MS2 coat protein” value reads like this: (input ligand: FMN 200 uM) 20.1 nM; (input ligand: none) 15.9 nM.

In the case of “CGCAAUGGAGGAUAUACAUGAGGAUCACCCAUGUGGUCCUUGAGAUUCCAAAAGUCAAGUAGAAGGUCAGCGGC [Eternabot (L1) Solution 45] (Eterna round: R97, puzzle: Exclusion 3)”, the “apparent KD of MS2 coat protein” value worked out at 1210 nM (input ligand: FMN 200 uM) and 1600 nM (input ligand: none).

On to “CGCAGACGAGGAUAUAGAUGGAAUGACAUGAGGAUCACCCAUGUGAUCGAUCUAUUGGGUUUAGAAGGUGUCUGCG [JR_Ex5_Sub046] (Eterna round: R97, puzzle: Exclusion 5)”, for which the “apparent KD of MS2 coat protein” value by setting is: (input ligand: FMN 200 uM) 14.4 nM; (input ligand: none) 15.2 nM.

In the case of “CGCCUACAUGAGGAUCACCCAUGUGAGGAUAUCCUGCGAGGAUCAAAAGAUCCUCGUGGGAGAAGGCGCCUGGA [Omei Ex1 B6] (Eterna round: R97, puzzle: Exclusion 1)”, the “apparent KD of MS2 coat protein” value (input ligand: FMN 200 uM) turned out to be 37.6 nM and the “apparent KD of MS2 coat protein” value (input ligand: none) was found to be 13.1 nM.

For “CGCCUACAUGAGGAUCACCCAUGUGAGGAUAUCCUGCGAGGAUCAAAAGAUCCUCGUGGGAGAAGGCGCUUGGA [Omei Ex1 B7] (Eterna round: R97, puzzle: Exclusion 1)”, the “apparent KD of MS2 coat protein” value is, setting by setting: (input ligand: FMN 200 uM) 18.7 nM; (input ligand: none) 19.4 nM.

On to “CGCCUGGGAGGAUAUCCAAUAUAUGACAUGAGGAUCACCCAUGUUUCCACUCGUACCUCCGGAGAAGGCCCGGCGU [Ex5 #31] (Eterna round: R97, puzzle: Exclusion 5)”, for which the “apparent KD of MS2 coat protein” value came out at 21.7 nM (input ligand: FMN 200 uM) and 26.7 nM (input ligand: none).

Turning to “CGCGCCUUUGUCAGGAUAUUCGGGCGAGCCCGGCCGGAGAAGGGACUUGAGGAUCACCCAAGUGACGCGAAAAC [Beenusre] (Eterna round: R97, puzzle: Brourd's mod of Exclusion 4)”, the “apparent KD of MS2 coat protein” value was determined as 20.8 nM (input ligand: FMN 200 uM) and 20.6 nM (input ligand: none).

As to “CGCGGCGCGUAGGAUAUUGGGUCGGACGGCAAAUAAGAAGGACGCACAUGAGGAUCACCCAUGUCGAAAGCACA [Eternabot (Original) Solution 17] (Eterna round: R97, puzzle: Exclusion 6)”, the “apparent KD of MS2 coat protein” value turned out to be 27.8 nM (input ligand: FMN 200 uM) and 33.7 nM (input ligand: none).

For “CGCGUAUGAGGAUAUGCAUAAAAGGGUGCACUGAGUCUGAGACAUGAGGAUCACCCAUGUAGAAGGCGUGCGCU [Beerteon] (puzzle: Exclusion 2)”, the “apparent KD of MS2 coat protein” value under setting [1] turned out to be 13.6 nM.

Consider “CGGAUACAUGAGGAUCACCCAUGUGAGGAUAUCGUACGUUCGUCGAUAGACGAUCGUACGAGAAGGCAUGACCG [Mat - Exclusion 1 - Eli Mod - D34] (Eterna round: R97, puzzle: Exclusion 1)”, for which the “apparent KD of MS2 coat protein” value (input ligand: FMN 200 uM) amounted to 71.3 nM and the “apparent KD of MS2 coat protein” value (input ligand: none) is 200 nM.

As to “CGGCAUGUCUGAGGAUAUCUGCACGAUUAGUGCAGAGAAGGCAGAACAUGAGGAUCACCCAUGUAGAUCAUUAACCGAUUAAUU [ENG1/7-A1] (Eterna round: R96, puzzle: Exclusion NG 1)”, the “apparent KD of MS2 coat protein” value reads like this: (input ligand: FMN 200 uM) 275 nM; under setting [2], 127 nM; (input ligand: none) 194 nM.

For “CGGCCGUUUGUAAGGAUAUAACUAGUUGCGACCAGUUAGAAGGUACAUGAGGAUCACCCAUGUCUUCCAGUGGC [Eternabot (L1) Solution 76] (Eterna round: R97, puzzle: Brourd's mod of Exclusion 4)”, the “apparent KD of MS2 coat protein” value (input ligand: FMN 200 uM) is 16.2 nM and the “apparent KD of MS2 coat protein” value (input ligand: none) amounted to 15.1 nM.

For “CGGCGGGCAGGAUAUGGUAAUAAUUACAUGAGGAUCACCCAUGUGGAUAUAUGGGAAUAACCAGAAGGGCUUGUUG [-20.1, -20 kcal, A 30%] (Eterna round: R97, puzzle: Exclusion 5)”, the “apparent KD of MS2 coat protein” value is, setting by setting: (input ligand: FMN 200 uM) 63.2 nM; (input ligand: none) 74.4 nM.

On to “CGGGAGGAAGGAUAUACACGGCCUCCUAGAAUAAAUCCUGGACAUGAGGAUCACCCAUGUAGAAGGUCCACCGA [Tiuslala] (puzzle: Exclusion 2)”, for which, under setting [1], the “apparent KD of MS2 coat protein” value was 17.3 nM.

On to “CGGGCAGCAGGAUAUACAUAGGUCAACAGAAAUGAGUAUUGACAUGAGGAUCACCCAUGUAGAAGGGCUGUACC [Eternabot (L2) Solution 96] (Eterna round: R97, puzzle: Exclusion 2)”, for which the “apparent KD of MS2 coat protein” value (input ligand: FMN 200 uM) came to 412 nM and the “apparent KD of MS2 coat protein” value (input ligand: none) is 391 nM.

Turning to “CGGGCGCGUGUAGGAUAUCGGGCCCGGUGGGCCCGAGAAGGACAUGAGGAUCACCCAUGUGCCCGGGUUGCCCGGGCGCGCCCG [-50, -49 kcal and 14% A] (Eterna round: R96, puzzle: Exclusion NG 1)”, the “apparent KD of MS2 coat protein” value came out at 14.6 nM (input ligand: FMN 200 uM), 7.82 nM under setting [2] and 14.5 nM (input ligand: none).

For the sequence “CGGUAGUGCUCAGGAUAUACAUGAGGAUCACCCAUGUAACUAGAAUCGGUCGUCCGAUCAGUGGUGUAGAAGGGAGGCUGGCUG [random 1, A 25%] (Eterna round: R96, puzzle: Exclusion NG 2)”, the “apparent KD of MS2 coat protein” value worked out at 32.1 nM (input ligand: FMN 200 uM), 22 nM under setting [2] and 31.5 nM (input ligand: none).

On to “CGUACUAAAGUCAGGAUAUUGUCUCGGAUACGAAACAAGAAGGGACAUGAGGAUCACCCAUGUAGAUAGUACGA [Malc #30 mod 5] (puzzle: Brourd's mod of Exclusion 4)”, for which the “apparent KD of MS2 coat protein” value is 16.9 nM under setting [3], 23.4 nM under setting [1] and 26.6 nM under setting [4].

On to “CGUACUGAAGUCAGGAUAUUGUCUCGGAUACGAAACAAGAAGGGACAUGAGGAUCACCCAUGUGGACAGUACGA [Malc #30 mod 6] (puzzle: Brourd's mod of Exclusion 4)”, for which the “apparent KD of MS2 coat protein” value by setting is: under setting [3], 38.3 nM; under setting [1], 44 nM; under setting [4], 36.7 nM.

As for “CGUCUGUCAGGAUAUGGUUACAUAGACAUGAGGAUCACCCAUGUGACGUGGGACUAGUGAUUAGAAGGGACGAACG [EX5 #69] (Eterna round: R97, puzzle: Exclusion 5)”, the “apparent KD of MS2 coat protein” value by setting is: (input ligand: FMN 200 uM) 36.5 nM; (input ligand: none) 31.7 nM.

“CGUGACUAAGGAUAUACAUGAGGAUCACCCAUGUGAUUCAAGAUUUUCGACUGGAGAGGUAGAAGGUGGAUGCC [Eternabot (L1) Solution 99] (Eterna round: R97, puzzle: Exclusion 3)”: the “apparent KD of MS2 coat protein” value is, setting by setting: (input ligand: FMN 200 uM) 63.3 nM; (input ligand: none) 94.4 nM.

As for “CGUGACUCAGGAUAUCUAUAAUAUCACAUGAGGAUCACCCAUGUCCAGCGAAAGCUGGAGAGAGAAGGGAGUCACG [Fiskers Ex 5 - 36] (puzzle: Exclusion 5)”, the “apparent KD of MS2 coat protein” value is, setting by setting: under setting [3], 67.7 nM; under setting [1], 67.3 nM; under setting [4], 61.5 nM.

With “CGUGACUGAGGAUAUCUAUAAUGUCACAUGAGGAUCACCCAUGUCCAGCGAAAGCUGGAGGGAGAAGGCAGUCACG [Fiskers Ex 5 - 33] (puzzle: Exclusion 5)”, the “apparent KD of MS2 coat protein” value by setting is: under setting [3], 29.4 nM; under setting [1], 55.5 nM; under setting [4], 74.6 nM.

As for “CGUGCGUAUGUGAGGAUAUGCUGGUCCUUGGAUCGGCAGAAGGCACAUGAGGAUCACCCAUGUGGUGUCGUCCA [salish99_Bmod_ex4_089] (puzzle: Brourd's mod of Exclusion 4)”, the “apparent KD of MS2 coat protein” value under setting [1] is 85.7 nM.

As to “CGUGGCCAAGGAUAUGGGUAUCAUGACAUGAGGAUCACCCAUGUAUAGAGGAUCCAUAGCCCAGAAGGUGGUCCGG [Eternabot (L1) Solution 85] (Eterna round: R97, puzzle: Exclusion 5)”, the “apparent KD of MS2 coat protein” value (input ligand: FMN 200 uM) amounted to 44 nM and the “apparent KD of MS2 coat protein” value (input ligand: none) was found to be 17 nM.

As for “CGUGUGUCAGGAUAUUAGUAAUGUAUGGAUACAUAUAUUACUGAGAAGGGACAUGAGGAUCACCCAUGUAUACG [JR_Ex4_Sub059] (Eterna round: R97, puzzle: Exclusion 4)”, the “apparent KD of MS2 coat protein” value reads like this: (input ligand: FMN 200 uM) 158 nM; (input ligand: none) 79.9 nM.

Take “CGUUCGCGAGGAUAUGCAUUCGAGUCCACUACGUGUCUGGGACUUGAGGAUCACCCAAGUAGAAGGCGCCUCAA [salish99_ex2_r4_651] (Eterna round: R97, puzzle: Exclusion 2)”: the “apparent KD of MS2 coat protein” value by setting is: (input ligand: FMN 200 uM) 171 nM; (input ligand: none) 230 nM.

On to “CGUUGUCAAGGAUAUAUAGAGCUAUACAUGAGGAUCACCCAUGUGGUUAGUGUUGUGUGAGUAGAAGGUGGAAUGU [Eternabot (L2) Solution 99] (Eterna round: R97, puzzle: Exclusion 5)”, for which the “apparent KD of MS2 coat protein” value (input ligand: FMN 200 uM) came out at 84.3 nM and the “apparent KD of MS2 coat protein” value (input ligand: none) turned out to be 224 nM.

“CUAAAAGUGAUCACAGGAACAUGAGGAUCACCCAUGUGCCUCAAGGAUAUGCACGGCUAUCCAGGGUAGAAGGUGAGAAUGCAC [Eternabot solution 30] (Eterna round: R96, puzzle: Exclusion NG 3)”: the “apparent KD of MS2 coat protein” value by setting is: (input ligand: FMN 200 uM) 68.3 nM; under setting [2], 104 nM; (input ligand: none) 100 nM.

Take “CUAAAUCAUGUAGGAUAUGCAUAGCGAAGCUAUGCAGAAGGACAUGAGGAUCACCCAUGUUCUUCCGUCUGCGUACAGACGGAA [Mat - Exclusion NG 1 - Mod of JL - D30] (Eterna round: R96, puzzle: Exclusion NG 1)”: the “apparent KD of MS2 coat protein” value reads like this: (input ligand: FMN 200 uM) 268 nM; under setting [2], 32.4 nM; (input ligand: none) 33.5 nM.
